US20160298117, “PEANUT-BINDING NUCLEIC ACID MOLECULE AND USE THEREOF” (NEC Solution Innovators, Ltd., published 2016)

T1: conarachin (undenatured) (Arachis hypogaea) (UniProt P43238)
T1 sequence: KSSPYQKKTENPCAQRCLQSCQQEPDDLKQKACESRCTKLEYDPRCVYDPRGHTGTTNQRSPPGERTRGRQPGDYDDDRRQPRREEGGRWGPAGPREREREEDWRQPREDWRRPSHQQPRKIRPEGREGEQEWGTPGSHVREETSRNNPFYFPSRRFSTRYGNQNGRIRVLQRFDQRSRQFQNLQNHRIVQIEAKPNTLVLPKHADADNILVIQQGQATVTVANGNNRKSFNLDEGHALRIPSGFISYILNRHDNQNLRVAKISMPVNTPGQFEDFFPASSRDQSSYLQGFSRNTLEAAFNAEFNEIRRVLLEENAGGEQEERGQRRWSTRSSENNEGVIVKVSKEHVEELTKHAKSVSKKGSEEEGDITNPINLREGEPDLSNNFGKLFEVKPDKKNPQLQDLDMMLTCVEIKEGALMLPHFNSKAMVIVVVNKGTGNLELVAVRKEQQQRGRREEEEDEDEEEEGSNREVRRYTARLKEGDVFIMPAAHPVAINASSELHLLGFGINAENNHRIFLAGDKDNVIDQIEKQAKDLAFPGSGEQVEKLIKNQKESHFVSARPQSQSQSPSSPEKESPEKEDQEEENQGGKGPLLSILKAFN

T2: conarachin (undenatured) (Arachis hypogaea, UniProt P43238 P43238:26-626)
T2 sequence: T1 sequence

T3: conarachin (heat-denatured, boiled 10 min) (Arachis hypogaea, UniProt P43238 P43238:26-626)
T3 sequence: T1 sequence

T4: Ara h1 (heat-denatured, purified from parboiled peanut) (Arachis hypogaea, UniProt P43238 P43238:26-626)
T4 sequence: T1 sequence

B1: P_NES02 (CONA161R8m1s31) (ssDNA)
DNA: GAATCCGCGGGGTAGCGGTGGCGAGCGATTCAAAAAAAAAAAAAAAAAAAAAAAA
B2: P_NES03 (CONA161R2R8m1s32) (ssDNA)
DNA: GTTCGTGGTGTGTTGTGTGTGATTCCAGGGACAAAAAAAAAAAAAAAAAAAAAAAA

biological target: T1, conarachin (undenatured) (Arachis hypogaea); assay: SPR; conditions: all T replaced by 5-tryptaminocarbonyl-dU (TrpdU); printed as P_M_NES01 in table; same SPR buffer

Row | Molecule | Kd [nM]
1 | GGATTCCGTGCCGTGCTAAAGGCCTCCCCGTTTATAGGCAGGTATCCGGCAGACTACTGGGCTTGCGACAAATGAAAAAAAAAAAAAAAAAAAAAAAA [P_NES_M01 (CONA170TEDAR2R8m1)] | 0.0388

biological target: T5, beta-conglycinin (undenatured) (Glycine max, UniProt P0DO16;P11827;P25974 P0DO16:63-605,P11827:63-621,P25974:24-439); assay: SPR; little binding, 18.75-300 nM; conditions: tags: Sigma C5868-5GM
Procedure: (§1) First, as a sensor chip designed specifically for the ProteON, a streptavidin-immobilized chip (trade name: ProteOn NLC Sensor Chip, BioRad) was set in the ProteON XPR36. Biotinylated poly(dT) at 5 μmol/L was injected to a flow cell of the sensor chip using ultrapure water (DDW), and the binding was allowed to proceed until the signal intensity (RU: Resonance Unit) reached about 900 RU. The biotinylated poly(dT) was prepared by biotinylating the 5′ end of 24-mer deoxythymidine. Then, the poly(dA)-added aptamer at 1 μmol/L was injected to the flow cell of the chip using an SPR buffer at a flow rate of 25 μL/min for 80 seconds, and the binding was allowed to proceed until the signal intensity reached about 800 RU. […] Subsequently, the sample was injected using the SPR buffer at a flow rate of 50 μL/min for 120 seconds, followed by washing performed by flowing the SPR buffer under the same conditions. Signal intensity measurement was performed concurrently with the injection of the sample and the washing with the SPR buffer.
(§2) The concentrations of the β-conglycinin were set to 18.75, 37.5, 75, 150, and 300 nmol/L, and the protein concentrations in the soybean samples were set to 1, 3, 10, 30, and 100 ppm. The SPR analysis was performed in the same manner as in Example 1, except that these samples were used. Then, from the results of the above-described SPR analysis, the relative binding value was determined regarding the proteins in each peanut sample bound to the aptamer immobilized on the chip. The relative binding value was calculated as the ratio of the protein binding measured value to the aptamer immobilization measured value (the protein binding measured value/the aptamer immobilization measured value).

T5 sequence (P0DO16 63-605, chain 1 of 3): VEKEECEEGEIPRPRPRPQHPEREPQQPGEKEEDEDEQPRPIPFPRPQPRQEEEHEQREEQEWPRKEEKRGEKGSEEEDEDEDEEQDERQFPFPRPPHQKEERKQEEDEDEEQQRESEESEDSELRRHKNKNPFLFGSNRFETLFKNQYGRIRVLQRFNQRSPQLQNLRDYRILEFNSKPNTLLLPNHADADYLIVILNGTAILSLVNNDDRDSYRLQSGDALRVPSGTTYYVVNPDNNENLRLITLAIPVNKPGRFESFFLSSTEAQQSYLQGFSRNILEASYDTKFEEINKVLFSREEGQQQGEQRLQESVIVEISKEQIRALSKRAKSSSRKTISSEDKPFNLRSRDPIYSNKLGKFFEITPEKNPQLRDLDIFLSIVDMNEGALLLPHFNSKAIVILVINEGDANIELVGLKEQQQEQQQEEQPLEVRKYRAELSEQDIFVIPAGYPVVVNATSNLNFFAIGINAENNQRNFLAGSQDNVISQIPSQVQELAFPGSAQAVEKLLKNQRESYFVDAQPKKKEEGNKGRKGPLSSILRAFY
T5 sequence (P11827 63-621, chain 2 of 3): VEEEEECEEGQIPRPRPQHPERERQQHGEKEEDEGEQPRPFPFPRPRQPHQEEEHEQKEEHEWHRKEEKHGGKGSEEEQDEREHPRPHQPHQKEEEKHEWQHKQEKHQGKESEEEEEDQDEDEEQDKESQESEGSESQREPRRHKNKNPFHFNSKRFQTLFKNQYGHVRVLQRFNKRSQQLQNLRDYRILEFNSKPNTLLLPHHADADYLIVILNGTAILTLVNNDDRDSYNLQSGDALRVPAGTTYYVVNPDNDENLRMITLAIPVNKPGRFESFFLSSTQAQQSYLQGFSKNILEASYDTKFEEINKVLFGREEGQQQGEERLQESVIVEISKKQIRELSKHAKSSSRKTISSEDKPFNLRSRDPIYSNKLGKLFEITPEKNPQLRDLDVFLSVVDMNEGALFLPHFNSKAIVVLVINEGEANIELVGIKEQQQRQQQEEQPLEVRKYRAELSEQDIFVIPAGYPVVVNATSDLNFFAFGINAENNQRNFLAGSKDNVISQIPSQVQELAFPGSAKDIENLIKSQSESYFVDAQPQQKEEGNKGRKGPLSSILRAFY
T5 sequence (P25974 24-439, chain 3 of 3): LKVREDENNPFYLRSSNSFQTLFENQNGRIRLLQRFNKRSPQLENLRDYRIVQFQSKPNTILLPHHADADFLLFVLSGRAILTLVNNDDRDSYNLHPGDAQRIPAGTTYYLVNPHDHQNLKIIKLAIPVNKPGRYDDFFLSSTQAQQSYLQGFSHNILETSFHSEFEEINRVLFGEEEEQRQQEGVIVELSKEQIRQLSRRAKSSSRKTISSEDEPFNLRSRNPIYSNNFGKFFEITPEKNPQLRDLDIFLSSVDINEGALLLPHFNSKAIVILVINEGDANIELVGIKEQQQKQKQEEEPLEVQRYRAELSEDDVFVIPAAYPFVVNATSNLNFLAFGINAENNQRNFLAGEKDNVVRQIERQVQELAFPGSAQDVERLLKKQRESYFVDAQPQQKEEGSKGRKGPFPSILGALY

Row | Molecule | binding result
2 | B1 | no binding
3 | CCCGCCTGTATTCCTGTCCAAAAAAAAAAAAAAAAAAAAAAAA (ssDNA) [P_NES01 (NAH1128R7Am2s19G)] | no binding
4 | B2 | no binding
5 | TTTTTTTTTTTTTTTTTTTTAAAAAAAAAAAAAAAAAAAAAAAA (ssDNA) [PolydT20] | no binding
6 | GTTTTCTAGGCCAATCTGATCAACAAAAAAAAAAAAAAAAAAAAAAAA (ssDNA) [P_NES04 (CONA171NNHR2R8m2s24)] | no binding
7 | CTCTCTCTCTCTCCCTCTCTCTCTCAAAAAAAAAAAAAAAAAAAAAAAA (ssDNA) [CT25_C3 (Pyrimidine rich)] | no binding

biological target: T2, conarachin (undenatured); assay: SPR; same SPR buffer; conditions: tags: COSMO BIO CSB-CSB-NP003601PL
Procedure: (§3) First, as a sensor chip designed specifically for the ProteON, a streptavidin-immobilized chip (trade name: ProteOn NLC Sensor Chip, BioRad) was set in the ProteON XPR36. Biotinylated poly(dT) at 5 μmol/L was injected to a flow cell of the sensor chip using ultrapure water (DDW), and the binding was allowed to proceed until the signal intensity (RU: Resonance Unit) reached about 900 RU. The biotinylated poly(dT) was prepared by biotinylating the 5′ end of 24-mer deoxythymidine. Then, the poly(dA)-added aptamer at 1 μmol/L was injected to the flow cell of the chip using an SPR buffer at a flow rate of 25 μL/min for 80 seconds, and the binding was allowed to proceed until the signal intensity reached about 800 RU. […]
(§4) Samples were prepared by adjusting commercially available peanut allergen conarachin (COSMO BIO, CSB-CSB-NP003601PL, Arachis hypogaea seed, Native) to 50 nmol/L, 25 nmol/L, 12.5 nmol/L, 6.25 nmol/L, and 3.125 nmol/L. The conarachin is a undenatured protein, and the conarachin generally accounts for about 17% of the total amount of peanut proteins in a peanut. The SPR analysis was carried out in the same manner as in Example 1, and the kinetic parameter was calculated from the results of the analysis.

Row | Molecule | Kd [nM]
8 | TTTTTTTTTTTTTTTTTTTTAAAAAAAAAAAAAAAAAAAAAAAA (ssDNA) [PolydT20] | 0.263
9 | CTCTCTCTCTCTCCCTCTCTCTCTCAAAAAAAAAAAAAAAAAAAAAAAA (ssDNA) [CT25_C3 (Pyrimidine rich)] | 0.28

biological target: T2, conarachin (undenatured); assay: SPR; 40 mM HEPES pH 7.5, 125 mM NaCl, 5 mM KCl, 1 mM MgCl2, 0.05% Tween 20; conditions: tags: COSMO BIO CSB-CSB-NP003601PL
Procedure: as §3, §4

Row | Molecule | Kd [nM]
10 | CCCGCCTGTATTCCTGTCCAAAAAAAAAAAAAAAAAAAAAAAA (ssDNA) [P_NES01 (NAH1128R7Am2s19G)] | 0.259

biological target: T3, conarachin (heat-denatured, boiled 10 …); assay: SPR; 3.125-50 nM; superior to undenatured; conditions: tags: COSMO BIO CSB-CSB-NP003601PL
Procedure: as §3
(§5) Samples were prepared by adjusting the undenatured conarachin to predetermined concentrations (10, 30, 100, 300, and 1000 nmol/L) and the heat-denatured conarachin to predetermined concentrations (3.125, 6.25, 12.5, 25, and 50 nmol/L). […] From the results of the above-described SPR analysis, the relative binding value was determined regarding the conarachin bound to the aptamer immobilized on the chip. The relative binding value was calculated as the ratio of the protein binding measured value to the aptamer immobilization measured value (the protein binding measured value/the aptamer immobilization measured value).

Row | Molecule | binding result
11 | B1 | binds

biological target: T4, Ara h1 (heat-denatured, purified from …); assay: SPR; 40 mM HEPES pH 7.5, 125 mM NaCl, 5 mM KCl, 1 mM MgCl2, 0.05% Tween 20; conditions: tags: INDOOR biotechnologies NA-AH1-1
Procedure: as §1
Samples were prepared by adjusting commercially available peanut allergen Ara h1 (INDOOR biotechnologies, #NA-AH1-1, Blanched peanut, crushed [Runner cultivar]) to 50 nmol/L, 25 nmol/L, 12.5 nmol/L, and 6.25 nmol/L. The Ara h1, which is purified from parboiled peanuts, is a heat-denatured protein. The SPR analysis was carried out in the same manner as in Example 1, and the kinetic parameter was calculated from the results of the analysis.

Row | Molecule | Kd [nM]
12 | B2 | 0.173
13 | TTTTTTTTTTTTTTTTTTTTAAAAAAAAAAAAAAAAAAAAAAAA (ssDNA) [PolydT20] | 0.19
14 | GTTTTCTAGGCCAATCTGATCAACAAAAAAAAAAAAAAAAAAAAAAAA (ssDNA) [P_NES04 (CONA171NNHR2R8m2s24)] | 0.141

biological target: T4, Ara h1 (heat-denatured, purified from …); assay: SPR; 6.25-100 nM Ara h1; conditions: tags: INDOOR biotechnologies NA-AH1-1
Procedure: as §3
as §5, with “Ara h1 used in Example 2” for “undenatured conarachin”, “(6.25,” for “(10, 30, 100, 300, and 1000 nmol/L) and the heat-denatured conarachin to predetermined concentrations (3.125, 6.25,”, “25, 50,” for “25,”, “100” for “50”, “Ara h1” for “conarachin”

Row | Molecule | binding result
15 | B1 | binds

biological target: beta-conglycinin (heat-denatured, boiled 10 min) (Glycine max, UniProt P0DO16;P11827;P25974 P0DO16:63-605,P11827:63-621,P25974:24-439); assay: SPR; little binding, 18.75-300 nM; conditions: tags: Sigma C5868-5GM
Procedure: as §1, with “Biotinylated” for “First, as a sensor chip designed specifically for the ProteON, a streptavidin-immobilized chip (trade name: ProteOn NLC Sensor Chip, BioRad) was set in the ProteON XPR36. Biotinylated”
As soybean allergen samples, undenatured β-conglycinin, heat-denatured β-conglycinin, undenatured soybean proteins, and heat-denatured soybean proteins were provided. A commercially available product (Sigma, trade name β-conglycinin from Glycine max (soybean), C5868-5GM) was used as the undenatured β-conglycinin. The heat-denatured β-conglycinin was prepared by boiling the undenatured β-conglycinin for 10 minutes and then collecting a supernatant fraction. As the undenatured soybean proteins and the heat-denatured soybean proteins, the undenatured soybean sample and the heat-denatured soybean sample in Example 1 were used.
as §2, with “chip.” for “chip. The relative binding value was calculated as the ratio of the protein binding measured value to the aptamer immobilization measured value (the protein binding measured value/the aptamer immobilization measured value).”

beta-conglycinin (heat-denatured, boiled 10 min), sequence (P0DO16 63-605, chain 1 of 3): as the sequence (P0DO16 63-605, chain 1 of 3) above
beta-conglycinin (heat-denatured, boiled 10 min), sequence (P11827 63-621, chain 2 of 3): as the sequence (P11827 63-621, chain 2 of 3) above
beta-conglycinin (heat-denatured, boiled 10 min), sequence (P25974 24-439, chain 3 of 3): as the sequence (P25974 24-439, chain 3 of 3) above

Row | Molecule | binding result
16 | B1 | no binding
17 | CCCGCCTGTATTCCTGTCCAAAAAAAAAAAAAAAAAAAAAAAA (ssDNA) [P_NES01 (NAH1128R7Am2s19G)] | no binding
18 | B2 | no binding
19 | TTTTTTTTTTTTTTTTTTTTAAAAAAAAAAAAAAAAAAAAAAAA (ssDNA) [PolydT20] | no binding
20 | GTTTTCTAGGCCAATCTGATCAACAAAAAAAAAAAAAAAAAAAAAAAA (ssDNA) [P_NES04 (CONA171NNHR2R8m2s24)] | no binding
21 | CTCTCTCTCTCTCCCTCTCTCTCTCAAAAAAAAAAAAAAAAAAAAAAAA (ssDNA) [CT25_C3 (Pyrimidine rich)] | no binding

biological target: T2, conarachin (undenatured); assay: SPR; 10-1000 nM conarachin; conditions: tags: COSMO BIO CSB-CSB-NP003601PL
Procedure: as §3, §5

Row | Molecule | binding result
22 | B1 | binds

biological target: T4, Ara h1 (heat-denatured, purified from …); assay: SPR; very high binding; conditions: tags: INDOOR biotechnologies NA-AH1-1
Procedure: as §1
(§6) Except that the following eight types of aptamers were used as pyrimidine-rich aptamers, the binding forces to Ara h1, heat-denatured peanut proteins, undenatured β-conglycinin, and heat-denatured soybean proteins were examined by SPR in the same manner as in the above-described examples.

Row | Molecule | binding result
23 | CACACACACCCCCCCCCCCACACACAAAAAAAAAAAAAAAAAAAAAAAAA (ssDNA) [CA25_C11] | binds
24 | CACACACACACCCCCCCACACACACAAAAAAAAAAAAAAAAAAAAAAAAA (ssDNA) [CA25_C7] | binds
25 | CACACACACACACCCACACACACACAAAAAAAAAAAAAAAAAAAAAAAAA (ssDNA) [CA25_C3] | binds
26 | CACACACACACACACACACACACACAAAAAAAAAAAAAAAAAAAAAAAAA (ssDNA) [CA25_C0] | binds
27 | CTCTCTCTCCCCCCCCCCCTCTCTCAAAAAAAAAAAAAAAAAAAAAAAA (ssDNA) [CT25_C11] | binds
28 | CTCTCTCTCTCCCCCCCTCTCTCTCAAAAAAAAAAAAAAAAAAAAAAAA (ssDNA) [CT25_C7] | binds
29 | CTCTCTCTCTCTCTCTCTCTCTCTCAAAAAAAAAAAAAAAAAAAAAAAA (ssDNA) [CT25_C0] | binds

biological target: T5, beta-conglycinin (undenatured); assay: SPR; little binding; conditions: tags: Sigma C5868-5GM
Procedure: as §1, §6

Row | Molecule | binding result
30 | CACACACACCCCCCCCCCCACACACAAAAAAAAAAAAAAAAAAAAAAAAA (ssDNA) [CA25_C11] | no binding
31 | CACACACACACCCCCCCACACACACAAAAAAAAAAAAAAAAAAAAAAAAA (ssDNA) [CA25_C7] | no binding
32 | CACACACACACACCCACACACACACAAAAAAAAAAAAAAAAAAAAAAAAA (ssDNA) [CA25_C3] | no binding
33 | CACACACACACACACACACACACACAAAAAAAAAAAAAAAAAAAAAAAAA (ssDNA) [CA25_C0] | no binding
34 | CTCTCTCTCCCCCCCCCCCTCTCTCAAAAAAAAAAAAAAAAAAAAAAAA (ssDNA) [CT25_C11] | no binding
35 | CTCTCTCTCTCCCCCCCTCTCTCTCAAAAAAAAAAAAAAAAAAAAAAAA (ssDNA) [CT25_C7] | no binding
36 | CTCTCTCTCTCTCTCTCTCTCTCTCAAAAAAAAAAAAAAAAAAAAAAAA (ssDNA) [CT25_C0] | no binding
